In article PMC4754655 (2016):

Legend:
[1] = target: YU2 gp120, soluble monomer (HIV-1 isolate YU2 (clade B), UniProt P35961 32-498); assay: BLI
YU2 gp140-foldon trimer [2] = target: T1, YU2 gp140-foldon trimer (HIV-1 isolate YU2 (clade B) | ); assay: BLI
YU2 gp140-foldon trimer [3] = target: T1, YU2 gp140-foldon trimer; assay: SPR

| Binder | Kd [1] [nM] | Kd (YU2 gp140-foldon trimer [2]) [nM] | Kd (YU2 gp140-foldon trimer [3]) [nM] |
| --- | --- | --- | --- |
| GEBT404, mature IgG (antibody, V domains shown) VH: EVQLVESGGGLAKPGGSLRLSCAASGFTFSNYWMYWVRQAPGKGLEWISAINSAGSRTYYPDSVKGRFTISRENAKNTLYLQMDSLRAEDTAVYYCAKGRIAIFGLVITYFDYWGQGVLVTVSS VL: DIQMTQSPSSLSASVGDRVTITCRASQGITNDLAWYQQKPGETPKLLIYDASSLQSGIPSRFSGSGSGTDFTLTISSLQPEDFATYYCQHYYSTPPTFGGGTKVEIK | 43 | – | – |
| GEBT404, inferred germline (igL) reverted IgG (antibody, V domains shown) VH: EVQLVESGGGLAKPGGSLRLSCAASGFTFSNYWMHWVRQAPGKGLEWISAINSAGSSTYYADSVKGRFTISRENAKNTLYLQMDGLRAEDTAVYYCAKGRIAIFGLVITYFDYWGQGVLVTVSS VL: DIQMTQSPSSLSASVGDRVTITCQASQGITNDLAWYQQKPGETPKLLIYEASSLQSGIPSRFSGSGSGTDFTLTISSLQSEDFATYYCQHYYSTPPTFGGGTKVEIK | 56 | – | – |
| GEBT412, mature IgG (antibody, V domains shown) VH: QVQLVESGGGLVQPGGSLRLACAASGFIFSNHGMHWVRQAPGKGLEWVAVIWYDGSEKYYADSVKDRFTISRDNSKNMLYLQMNNLKLVDTAVYYCARRGCTGSGCYLYYYGLDSWGQGVVVTVSS VL: DIQMTQSPSSLSASVGDTVTITCRASQGISSHLNWFQQKPGKAPKLLIYAATTLQSGVPSRFSGSGSGTDFTLTISSLQPEDFATYYCLQHNFYPYSFGQGTKVEIK | 11 | – | – |
| GEBT391, mature IgG (antibody, V domains shown) VH: QVQLVESGGGLVQPGGSLRLSCAASGFTFSSYGMHWVRQAPGKGLEWVAVIWFDGSEKYYVDSVKDRFTISRDNSKNMLYLQMNNLKLDDTAVYYCARRGCTGSGCYLYYYALDSWGQGVVVTVSS VL: DIQMTQSPSSLSASVGDTVTITCRASQGISSYLNWFQQKPGKAPKLLIYAATTLQSGVPSRFSGSGSGTDFTLTISSLQPEDFATYYCLQHNFYPYSFGQGTKVEIK | 6 | – | – |
| GEBT391, inferred germline (igL) reverted IgG (antibody, V domains shown) VH: EVQLVESGGGLVQPGGSLRLSCAASGFTFSSYGMHWVRQAPGKGLEWVAVIWYDGSKKYYADSVKDRFTISRDNSKNMLYLQMNNLKLEDTAVYYCARRGCTGSGCYLYYYALDSWGQGVVVTVSS VL: DIQMTQSPSSLSASVGDTVTITCRASQGISSYLNWFQQKPGKAPKLLIYAASSLESGVPSRFSGSGSGTEFTLTISSLQPEDFATYYCLQHNFYPYSFGQGTKVEIK | 118 | – | – |
| GEBT412, inferred germline (igL) reverted IgG (antibody, V domains shown) VH: QVQLVESGGGLVQPGGSLRLSCAASGFTFSSYGMHWVRQAPGKGLEWVAVIWYDGSKKYYADSVKDRFTISRDNSKNMLYLQMNNLKLEDTAVYYCARRGCTGSGCYLYYYGLDSWGQGVVVTVSS VL: DIQMTQSPSSLSASVGDTVTITCRASQGISSYLNWFQQKPGKAPKLLIYAASSLESGVPSRFSGSGSGTEFTLTISSLQPEDFATYYCLQHNFYPYSFGQGTKVEIK | 104 | – | – |
| GEBT414, mature IgG (antibody, V domains shown) VH: EVQLVQSGAEVKRPGESLRISCKTSGYSFTGSWISWVRQMPGKGLDWMGNIYPGDSDTRYNPSFQGHVTISADKSISTTYLQWSSLKASDTATYYCAKGGGITIFGLLHYPLDSWGQGVVVTVSS VL: DIQMTQSPSSLSASVGDTVTITCRASQGINNWLAWYQQKPGKAPKLLIYKASSLQSGVPSRFSGSGSGTDFTLTISSLQSEDFATYYCQQYNSGPLTFGGGTKVEIK | 24 | – | – |
| GEBT414, inferred germline (igL) reverted IgG (antibody, V domains shown) VH: EVQLVQSGAEVKRPGESLRISCKTSGYSFTGSWISWVRQMPGKGLEWMGSIYPGDSDTRYNPSFQGHVTISADKSISTTYLQWSSLKASDTATYYCAKGGGITIFGLLHYPLDSWGQGVVVTVSS VL: DIQMTQSPASLSASVGDRVTITCQASQGISSWLAWYQQKPGKAPKLLLYKAPGLQSGVPSMFSGSGSGTEFTLTISSLQPEDFATYYCQQYNSGPLTFGGGTKVEIK | 63 | – | – |
| GEBT403, inferred germline (igL) reverted IgG (antibody, V domains shown) VH: QVQLVQSGAEVKKPGSSVKVSCKASGYTFTDYYMHWVRQAPGQGLEWMGEINPKTGGTNYAQKFQGRVTMTRDTSTSTAYMELSSLRSEDTAVYYCARGGQRLIPLRRFYFYYWGQGVLVTVSS VL: QSVLTQPPSVSGAPGQKVTISCTGSSSNIGGYDVHWYQQLPGMAPKLLIYDNNERPSGISDRFSGSKSATSASLAITGLQTEDEADYYCQSYDSSMNAWVFGGGTRLTVL | 11 | – | – |
| GEBT403 igL-reverted Fab (Fab, V domains shown) VH: QVQLVQSGAEVKKPGSSVKVSCKASGYTFTDYYMHWVRQAPGQGLEWMGEINPKTGGTNYAQKFQGRVTMTRDTSTSTAYMELSSLRSEDTAVYYCARGGQRLIPLRRFYFYYWGQGVLVTVSS VL: QSVLTQPPSVSGAPGQKVTISCTGSSSNIGGYDVHWYQQLPGMAPKLLIYDNNERPSGISDRFSGSKSATSASLAITGLQTEDEADYYCQSYDSSMNAWVFGGGTRLTVL | – | 2 | – |
| GEBT403 mature Fab (Fab, V domains shown) VH: EVQLVQSGAEVKKPGSSVKVSCKASGYTFTDYYMHWVRQAPGQGLEWMGEINPKTGGTNYAQKFQGRVTMTRDTSTSTAYMELSSLRSEDTAIYSCARGGQRLIPLRRFYFYYWGQGVLVTVSS VL: QSVLTQPPSVSGAPGQKVTISCTGSSSNIGGYDVHWYQQLPGMAPKLLIYDNNERPSGISDRFSGSKSGTSASLAITGLQTEDEADYYCQSYDSSMNAWVFGGGTRLTVL | – | 5 | 7 |
| GEBT403, mature IgG (antibody, V domains shown) VH: EVQLVQSGAEVKKPGSSVKVSCKASGYTFTDYYMHWVRQAPGQGLEWMGEINPKTGGTNYAQKFQGRVTMTRDTSTSTAYMELSSLRSEDTAIYSCARGGQRLIPLRRFYFYYWGQGVLVTVSS VL: QSVLTQPPSVSGAPGQKVTISCTGSSSNIGGYDVHWYQQLPGMAPKLLIYDNNERPSGISDRFSGSKSGTSASLAITGLQTEDEADYYCQSYDSSMNAWVFGGGTRLTVL | 13 | – | – |
